Source: patent US8273710B2, “Protein hydrolysate enriched in peptides inhibiting DPP-IV and their use” (Campina Nederland Holding B.V., priority 2004, dated 2012)

target: T1, DPP-IV (Sus scrofa, UniProt P22411); assay: not given; details: additional peptides
Text: About 40 protein hydrolysates were subjected to on-line liquid chromatography (LC)-biochemical detection (BCD)-mass spectrometry (MS), a method that allowed for separation of crude extract by HPLC, after which the presence of bioactive compounds was detected by means of an on-line biochemical assay. This method for on-line fractionation and characterisation has extensively been described by Van Elswijk et al. (J Chromatography A (2003) 1020:45-58).
A variety of protein hydrolysates prepared according to example 2 were further investigated for DPP-IV inhibiting activity. Hydrolysed protein samples were analysed for DPP-IV inhibitory activity in a high-resolution screening (HRS) instrument, as discussed in Van Elswijk et al. (supra).
DPP-IV inhibition was monitored via the substrate conversion based bioassay format as disclosed in example 1. In addition to the DPP-IV inhibitory activity data, chemical information was obtained in real-time by allowing part of the HPLC effluent to be directed towards a mass spectrometer. […] The assay conditions applied ensured maximum enzyme activity by applying substrate saturation.

T1 sequence (P22411 whole entry): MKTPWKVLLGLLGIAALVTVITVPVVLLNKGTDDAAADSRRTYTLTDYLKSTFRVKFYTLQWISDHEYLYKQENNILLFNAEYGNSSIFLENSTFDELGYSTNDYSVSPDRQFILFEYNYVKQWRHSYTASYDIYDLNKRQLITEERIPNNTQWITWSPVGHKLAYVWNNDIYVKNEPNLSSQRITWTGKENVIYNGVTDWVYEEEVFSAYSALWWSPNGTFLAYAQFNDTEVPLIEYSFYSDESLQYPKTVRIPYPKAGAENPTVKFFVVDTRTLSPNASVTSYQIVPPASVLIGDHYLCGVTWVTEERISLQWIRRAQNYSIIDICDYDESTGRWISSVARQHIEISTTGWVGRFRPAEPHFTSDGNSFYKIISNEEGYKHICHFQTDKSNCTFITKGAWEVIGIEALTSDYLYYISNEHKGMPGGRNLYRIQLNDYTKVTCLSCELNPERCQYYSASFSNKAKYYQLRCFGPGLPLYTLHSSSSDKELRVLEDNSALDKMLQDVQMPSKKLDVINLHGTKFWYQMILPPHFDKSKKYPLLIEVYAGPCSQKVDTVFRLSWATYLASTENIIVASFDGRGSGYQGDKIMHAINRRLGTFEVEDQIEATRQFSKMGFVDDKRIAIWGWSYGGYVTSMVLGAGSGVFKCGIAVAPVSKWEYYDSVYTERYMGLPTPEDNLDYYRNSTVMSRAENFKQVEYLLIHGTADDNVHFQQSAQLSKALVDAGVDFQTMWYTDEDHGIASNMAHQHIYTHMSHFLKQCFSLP

Molecule	DPP-IV inhibiting activity (qualitative)
VTKCCTE	DPP-IV inhibiting compounds

same assay, conditions: signal relative to the highest signal obtained in this test (LPL and IPI)

Molecule	RELATIVE POTENCY [%]
LPVP	15
PLLQ	37
CC[C@H](C)[C@H](N)C(=O)N1CCC[C@H]1C(=O)N[C@H](C(=O)O)[C@@H](C)CC [IPI]	100
LPLP	11
GPFP	34
PFP	20
KVLP	98
MPLW	23
HPIK	6

target: T1, DPP-IV; assay: In vitro DPP-IV inhibition assay with Gly-Pro-p-nitroanilide substrate (absorption at 385 nm); type: biochemical; design: purchased Sigma D-7052; details: unhydrolysed control proteins, DH 0%
Method: DPP-IV activity can be determined by measuring the increase in absorption at 385 nm using Gly-Pro-p-nitroanilide (Sigma G-0513) as DPP-IV substrate. A decrease in DPP-IV activity is a measure for the inhibition.
13.152 mg Gly-Pro-p-nitroanilide (substrate; Sigma G-0513) was dissolved in 1 ml Tris buffer, pH 8.0. DPP-IV (Sigma D-7052) was diluted with Tris buffer, pH 8.0 to 1.1 Unit/ml. The substrate was diluted 50-fold with Tris buffer, pH 8.0. The samples were prepared by diluting a protein hydrolysate to a 1 wt. % protein solution in Tris buffer, pH 8.0. The samples were then serially diluted to obtain a range of sample concentrations. 50 μl of the different serially diluted samples and 50 μl of the diluted substrate were then pipetted in wells of a microtiter plate with 96 wells. Subsequently, 100 μl of the diluted enzyme was pipetted in each well of a plate with 96 wells. Then the increase in absorption at 385 nm was determined and DPP-IV activities at different concentrations of a variety of protein hydrolysates were determined, from which the IC50 (i.e. the concentration of inhibitor (particular protein hydrolysate) that inhibits 50% of the DPP-IV activity) could be derived. […] The degree of hydrolysis was determined using the o-phtaldialdehyde method, which is well known in the art.

Molecule	inhibition of the enzyme DPP-IV
Sodium caseinate	did not inhibit
